Target: extracellular domain of SARS‐CoV‐2 spike protein (ECD) (SARS‐CoV‐2, UniProt P0DTC2 14-1213)
Test: ELISA

B1: h‐deface2 (designed binder)
chain: EFHGPSWCLTPADRGLCRANENRFYYNSVIGKCRPFKYSGCGGNENNFTSKDKCLHECKKG
**Q.** How did the Kd turn out when B1 was run?
**A.** 54.4 nM

— article PMC9144876 (Protein Science : A Publication of the Protein Society, 2022)
